Measured values reported in PMC4840321.

B1: tetherin/BST-2/CD317/HM1.24: N65A (protein)
parent chain: MASTSYDYCRVPMEDGDKRCKLLLGIGILVLLIIVILGVPLIIFTIKANSEACRDGLRAVMECRNVTHLLQQELTEAQKGFQDVEAQAATCNHTVMALMASLDAEKAQGQKKVEELEGEITTLNHKLQDASAEVERLRRENQVLSVRIADKKYYPSSQDSSSAAAPQLLIVLLGLSALLQ
B2: tetherin/BST-2/CD317/HM1.24: NN-AA (protein)
parent chain: MASTSYDYCRVPMEDGDKRCKLLLGIGILVLLIIVILGVPLIIFTIKANSEACRDGLRAVMECRNVTHLLQQELTEAQKGFQDVEAQAATCNHTVMALMASLDAEKAQGQKKVEELEGEITTLNHKLQDASAEVERLRRENQVLSVRIADKKYYPSSQDSSSAAAPQLLIVLLGLSALLQ
B3: tetherin/BST-2/CD317/HM1.24: N92A (protein)
parent chain: MASTSYDYCRVPMEDGDKRCKLLLGIGILVLLIIVILGVPLIIFTIKANSEACRDGLRAVMECRNVTHLLQQELTEAQKGFQDVEAQAATCNHTVMALMASLDAEKAQGQKKVEELEGEITTLNHKLQDASAEVERLRRENQVLSVRIADKKYYPSSQDSSSAAAPQLLIVLLGLSALLQ
B4: tetherin/BST-2/CD317/HM1.24: kifunensine (protein)
parent chain: MASTSYDYCRVPMEDGDKRCKLLLGIGILVLLIIVILGVPLIIFTIKANSEACRDGLRAVMECRNVTHLLQQELTEAQKGFQDVEAQAATCNHTVMALMASLDAEKAQGQKKVEELEGEITTLNHKLQDASAEVERLRRENQVLSVRIADKKYYPSSQDSSSAAAPQLLIVLLGLSALLQ

What was measured:
[1] = western blot, SGTA+Vpu-induced rise of 23-kDa species; details: glycan lost; control: wild type
[2] = cytosol/membrane fractionation ± SGTA and Vpu, anti-HA blot; details: glycan lost; control: wild type 23-kDa species
[3] = western blot, 23-kDa tetherin level ± SGTA and Vpu; details: glycan changed form; control: untreated

Protein	expression_or_secretion [1]	localisation_or_trafficking [2]	expression_or_secretion [3]
B1	no change		
B2	abolishes	no change	
B3	no change		
B4			no change
